Measurements reported in patent publication US9415012B2, “Sustained-release composition containing peptides as active ingredient” (IPSEN PHARMA S.A.S., priority 2011, dated 2016).

Assay: IE-HPLC analysis of rhGH deamidation before/after spray-drying
Assay type: physicochemical
Conditions: 130° C.
Method: Recombinant human growth hormone in sodium carbonate buffer was dissolved in water. Sodium hyaluronate was present in the composition at a concentration of 2 mg/mL and rhGH at a concentration of 1 mg/mL. The weight ratio protein/sodium hyaluronate was equal to 0.5.
The composition was then spray dried with an inlet temperature of 130° C.
An ion-exchange high performance liquid chromatography (IE-HPLC) analysis was performed to evaluate the […] of rhGH and a size-exclusion chromatography high performance liquid chromatography (SEC-HPLC) analysis was performed to evaluate the aggregation of this protein.

rhGH: recombinant human growth hormone
Stability in the spray-drying process: degraded
